The values that follow come from patent US20090104170A1.

The test deals with MHC class 1 molecules on the target cells. Put plainly: cell-based or functional assay.

On to “monoclonal antibody W6/32 (anti-pan class 1 MHC monoclonal antibody; DAKO)”, for which the percent lysis of Volle EBV-LCLs by SKEM NK lines 2, 6 and 7 at a 10:1 E/T ratio after preculture of the targets with W6/32 was more than 80%.
